Values of other authors, collected in publication PMC12376249.

Biological target: Histone H1 (Homo sapiens) (UniProt P07305)
Assay: single-molecule FRET

UniProt P07305, sequence (P07305 2-194): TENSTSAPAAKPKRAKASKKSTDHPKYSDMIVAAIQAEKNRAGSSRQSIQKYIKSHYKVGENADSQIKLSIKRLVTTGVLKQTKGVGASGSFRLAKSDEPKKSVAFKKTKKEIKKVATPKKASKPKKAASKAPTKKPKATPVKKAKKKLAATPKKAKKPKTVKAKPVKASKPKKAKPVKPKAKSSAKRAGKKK

Substance: Prothymosin alpha (from UniProt P06454)
- Kd: 0.05 nM
